Laboratory results from patent US20180036405A1.

Columns and labels:
[1] = biological target: human dimeric EGFR (EGFR.mFc) (human); test: SPR 37C, mAb captured by anti-human Fc, EGFR.mFc analyte
[2] = biological target: human monomeric EGFR (EGFR.mmh) (human) (UniProt P00533); test: SPR 37C, mAb captured by anti-human Fc, EGFR.mmh analyte
[3] = biological target: EGFR on A431 epidermoid carcinoma cells (human) (UniProt P00533); test: cell-based or functional assay

Row | Kd [1] [nM] | koff [1] [s⁻¹] | kon [1] [M⁻¹ s⁻¹] | t1/2 [1] [h] | Kd [2] [nM] | koff [2] [s⁻¹] | kon [2] [M⁻¹ s⁻¹] | t1/2 [2] [min] | ADCC EC50 [3] [Molar] | IC50 of A431 Proliferation [3] [Molar] | Substance | Maximum Cell Killing (%) [3] [%]
1 | 0.0303 | 0.000108 | 3.55e+06 | 1.78 | 4.68 | 0.00738 | 1.58e+06 | 2 | 1.86e-12 | 3.35e-10 | Control I: a chimeric anti-EGFR antibody with heavy and light chain variable sequences of "mAb 225" as set forth in U.S. Pat. No. 7,060,808 | 24
2 | 0.0423 |  |  | 3.3 |  |  |  |  |  |  | Control II: a commercially available fully human monoclonal anti-EGFR antibody designated as ABX-EGF | 
